From the supplement of paper PMC10126150
± gives the standard deviation of the averaged measurements.

Test system: ATP
Experiment: switch fluorescence ratio, 500 uM ATP over buffer (Cy3 cluster intensity, sum of 5 cycles each) (fold (ratio)); higher = stronger signal-on switching upon ATP binding; sequences stand for … in TCGTCGGCAGCGTCAGATGTGTATAAGAGACAGTTTTTTTTTTTTTTTTTTTTTTTTT…TC
Conditions: aptamer strand: ATP DNA aptamer (quencher-CACCTGGGGGAGTATTGCGGAGGAAGG + anchor), 100 nM annealed; ATP concentration: 500 uM
How it was run: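 The fluorescence ratio divides summed target-cycle Cy3 intensity by summed buffer-cycle Cy3 intensity for each cluster and is averaged per switch-domain sequence. Cy3-labelled switching-strand clusters on a modified Illumina MiSeq flow-cell were annealed to 100 nM quencher-labelled ATP aptamer, then imaged in selection buffer and again after 15 min with 500 uM ATP at 22 °C. Five such cycles were run, with NaOH stripping and re-annealing between them, and clusters outside 100-1000 RFU were excluded.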
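Further: ATP exposure 15 min at 22 °C before imaging.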

| Sequence | switch fluorescence ratio |
| --- | --- |
| CCTGTGAGTT | 0.986 ± 0.012 |
| GAGTACTGTA | 1.14 ± 0.053 |
| GGATTGAAGA | 0.969 ± 0.091 |
| GGGCTAGTGT | 0.963 ± 0.01 |
| CCAGAAAGTG | 1.26 ± 0.38 |
| ATAAAGCTCT | 1.01 ± 0.019 |
| TGAAGATATA | 0.99 ± 0.015 |
| GAGAATTGGG | 1.02 ± 0.061 |
| GGGGCTAACG | 1.02 ± 0.03 |
| CAAGGACAGC | 1.05 ± 0.047 |
| AACTACCAGA | 1.062 ± 0.0045 |
| CTGTGTTTGG | 0.997 ± 0.038 |
| CATTATCACG | 1.075 ± 0.01 |
| GTTGAAAGGG | 1.03 ± 0.027 |
| GCAGCATCGG | 1.12 ± 0.021 |
| CCTTATTAGG | 1.002 ± 0.0075 |
| CGTTACTAAC | 1.12 ± 0.02 |
| ATTTGCTTAG | 0.994 ± 0.021 |
| CCTAGGCTTT | 1.117 ± 0.0063 |
| GGGGCAAAGC | 0.96 ± 0.085 |
| AAATGGAGTA | 1.01 ± 0.007 |
| AAAATGGATG | 0.983 ± 0.031 |
| CTGTGGGTTA | 0.9595 ± 0.004 |
| ATAAGGGTAA | 1 ± 0.013 |
| GCCTTTGGCA | 0.962 ± 0.013 |

| Sequence | switch fluorescence ratio |
| --- | --- |
| TTTAGATGAG | 0.986 ± 0.053 |
| TATCTTTAAC | 1.03 ± 0.024 |
| TTTATGGTGT | 1.17 ± 0.21 |
| CGGTTGGGCT | 1.01 ± 0.054 |
| AGTAGGGTGG | 0.991 ± 0.032 |
| GGGATACTTA | 1.02 ± 0.04 |
| AGAAAATTGG | 1.01 ± 0.03 |
| TTGGGGTAAA | 1.03 ± 0.044 |
| AATCTTGAGG | 1.01 ± 0.028 |
| TAGTAGTGTG | 0.9625 ± 0.001 |
| GACGAATGGG | 0.985 ± 0.015 |
| CGGCTGTACG | 1.07 ± 0.022 |
| ATGTGGTCGC | 0.9972 ± 0.0016 |
| GCGATTGGAG | 1.01 ± 0.034 |
| GCTTTAACAC | 1.03 ± 0.014 |
| CCGTTTTTGT | 0.9922 ± 0.006 |
| CTTGGGGCGG | 0.962 ± 0.017 |
| AATAATGTTG | 0.998 ± 0.015 |
| TGTGGGTATA | 0.995 ± 0.02 |
| ATTAATTTTG | 0.992 ± 0.023 |
| GTGATATAGC | 0.9807 ± 0.0071 |
| CAATTAGTGA | 1.01 ± 0.028 |
| ATTGGGGAGC | 0.989 ± 0.014 |
| AGGTGTTTGT | 1.01 ± 0.028 |
| AAAGTAGGTT | 0.991 ± 0.023 |

| Sequence | switch fluorescence ratio |
| --- | --- |
| GTTAGGTCAG | 0.997 ± 0.028 |
| TAGCGCCCCG | 0.987 ± 0.016 |
| TCGGCCGCTG | 1.05 ± 0.064 |
| GCATCGGGCC | 0.981 ± 0.026 |
| GGTGCATGGT | 1.05 ± 0.011 |
| TACATTAGGC | 1.05 ± 0.018 |
| CACTTGGGTG | 1.064 ± 0.0066 |
| ATGGGAGGGT | 0.997 ± 0.061 |
| TCCTAGTCAT | 1.05 ± 0.036 |
| TTTAAGCTGG | 0.99 ± 0.017 |
| ATCAAAACTT | 1.03 ± 0.013 |
| ATCGGTGTGC | 0.981 ± 0.069 |
| AAAGGCGTTA | 0.9971 ± 0.0062 |
| TAAGAAGTTA | 1.02 ± 0.03 |
| TAAATGACTA | 0.987 ± 0.018 |
| TATGGTCGCT | 1.03 ± 0.041 |
| AATCTAATTG | 1.002 ± 0.0038 |
| AGGGGAGACC | 0.9775 ± 0.0096 |
| ACAATATAGA | 1.0126 ± 8.1e-07 |
| TATAAGTTGT | 1 ± 0.011 |
| CAATATCCGA | 1 ± 0.026 |
| GGGATTATTA | 0.981 ± 0.018 |
| TTGTGGTCCT | 0.974 ± 0.029 |
| TCTTACGGCT | 1.03 ± 0.033 |
| TTTTTAATCC | 1.05 ± 0.017 |

| Sequence | switch fluorescence ratio |
| --- | --- |
| TGCAATTTCG | 1.07 ± 0.065 |
| GATTAACGGT | 1.012 ± 0.0084 |
| CTTGATTTGT | 1.01 ± 0.036 |
| AGCGTTTTTT | 0.998 ± 0.026 |
| TGAGAAGTCA | 0.9785 ± 0.0066 |
| CTGTAGGGAC | 1.18 ± 0.025 |
| TGAAGGGCGT | 0.9927 ± 0.0081 |
| GGGCACTCGC | 0.999 ± 0.033 |
| CAGGGGCTGT | 0.997 ± 0.038 |
| TCCATATGGT | 0.975 ± 0.023 |
| AAGGGGCAGG | 1.04 ± 0.084 |
| AAATTATGCG | 0.99 ± 0.023 |
| CGTGTTTTAC | 1.018 ± 0.007 |
| GGCTCGGGAC | 1.01 ± 0.039 |
| TGGAATATTC | 1.04 ± 0.011 |
| TTAGGGGGCG | 1.03 ± 0.045 |
| TTTATGCTCC | 1.086 ± 0.0031 |
| ATTGTATGGA | 1 ± 0.011 |
| GAGATTTGAC | 1.01 ± 0.025 |
| GCTTGAGGCT | 0.959 ± 0.06 |
| TTCAAGCTTT | 1.01 ± 0.022 |
| TTTAAAATGT | 1.12 ± 0.25 |
| GTCGGGAAGG | 1.013 ± 0.0026 |
| GAGTGGGGTT | 1.011 ± 0.0024 |
| ATAGGCGGAA | 1.02 ± 0.036 |
